# Tested on: FcγRI activation of cultured human mast cells (CHMC)
# Experiment: Priming of mast cells, tryptase activity in supernatant after Fcγ activation with IgG and anti-IgG
# Assay type: cell-based
# Conditions: IL-4 absent or present in priming solution; IgE primed mast cells; human IgG3 and rabbit anti-human IgG (FIG. 1A, 1B)
# Experimental: Priming of mast cells is carried out by seeding the cells on Day 0 at 3.5×10^5 cells/mL in culture media plus SCF (200 ng/mL), IL-6 (200 ng/mL), IL-4 ([…]), IgE (200 ng/mL), and IgG3 (200 ng/mL).
# Activation or stimulation of cells is done on Day 3 by centrifuging the cells down and resupending them at 1.5×10^3 cells/mL in modified tyrodes (MT: 137 mM NaCl, 2.7 mM KCI, 1.8 mM CaCl2, 5.6 mM glucose, 20 mM Hepes (pH 7.4), 0.1% Bovine Serum Albumin (Sigma A4503)), with or without rabbit anti-human IgG (200 ng/mL final conc.), for 30 minutes at 37° C. (see Demo, S. D., Cytometry. 36(4):340-348 (1999)).
# Degranulation is measured by centrifuging down the sample, and harvesting the supernatant and measuring tryptase activity. The tryptase assays are performed under standard conditions (25 uL supernatant added to 100 uL of 10 uM tryptase substrate [20 mM stock solution of Z-Ala-Lys-Arg-AMC2TFA (Enzyme systems Products, Catalog No. AMC-246) diluted 1:2000 in tryptase assay buffer [[…] (pH 7.5), 10% w/v Glycerol, […], 0.01% NaN3] for 30 min at 37° C. The reactions are read in plate reader (Wallac, Victor 2, 1420 Multilabel Counter).
substance,measurement,value
IL-4: cytokine added to the priming solution (20 ng/mL),effect on activation (tryptase activity in the supernatant),did not appear to substantially affect activation

# Reference: US20060105398A1, “Methods of identifying compounds that modulate igg mediated mast cell activation” (Rigel Pharmaceuticals, Inc, priority 2002, published 2006)
